Experiment [1] has as its target T1, HLA-B*07:02 heavy chain with β2-microglobulin (MHC-I monomer, peptide groove as the binding site) (human | ). The experiment is described as follows: predicted/cited value [23].
In experiment [2] the target is T1, HLA-B*07:02 heavy chain with ….

The values that follow come from paper doi:10.1101/2024.12.23.630039 (2024).

Read-outs that look alike come from different tables or passages of the source.

In the case of RKELVRPAL [temperature-sensitive template peptide for HLA-B*07:02 (RKELVRPAL)], the Kd in experiment [1] was 4120 nM.
With RPELVRPAL [high-affinity peptide for HLA-B*07:02 (Table 1)], binding in experiment [2] was characterised by a dissociation constant (Kd) of 4.38 nM.
